From article PMC4338369

Molecular target: alkyl hydroperoxide reductase subunit C (peroxiredoxin) from Amphibacillus xylanus (Amphibacillus xylanus) (UniProt K0J4Q8)
Test: SPR

kon: 29 M⁻¹ s⁻¹
Substance: NADH oxidase from Amphibacillus xylanus (enzyme)
